Results taken from ChEMBL document CHEMBL1126580, “Enantiospecific syntheses of alpha-(fluoromethyl)tryptophan analogues: interactions with tryptophan hydroxylase and aromatic L-amino acid decarboxylase” (J Med Chem, 1993).

Assays:
[1] = substrate: N[C@@](CF)(Cc1c[nH]c2ccccc12)C(=O)O; experiment: Km value was evaluated as a substrate for P815 tryptophan hydroxylase […]
[2] = substrate: N[C@@](CF)(Cc1c[nH]c2ccccc12)C(=O)O; experiment: Compound was evaluated as a substrate for P815 tryptophan hydroxylase […]

B1: Tryptophan 5-hydroxylase 1 (Rattus norvegicus), P09810 (protein)
chain: MIEDNKENKDHSSERGRVTLIFSLKNEVGGLIKALKIFQENHVNLLHIESRKSKRRNSEFEIFVDCDINREQLNDIFPLLKSHTTVLSVDSPDQLPEKEDVMETVPWFPKKISDLDFCANRVLLYGSELDADHPGFKDNVYRRRRKYFAELAMNYKHGDPIPKIEFTEEEIKTWGTIFRELNKLYPTHACREYLRNLPLLSKYCGYREDNVPQLEDVSNFLKERTGFSIRPVAGYLSPRDFLSGLAFRVFHCTQYVRHSSDPLYTPEPDTCHELLGHVPLLAEPSFAQFSQEIGLASLGASEETVQKLATCYFFTVEFGLCKQDGQLRVFGAGLLSSISELRHALSGHAKVKPFDPKVACKQECLITSFQDVYFVSESFEDAKEKMREFAKTVKRPFGVKYNPYTQSIQVLRDSKSITSAMNELRHDLDVVNDALARVSRWPSV
[1]
  Km: 4.31 mM
[2]
  Vmax (uM min-1 (mg of protein)-1): 17.7
